How the values were obtained:
C3b = target: T1, C3b (UniProt P01024 749-1663; P01024 23-667); test: SPR (Biacore 2000), analyte over C3b deposited on CM5 chip
T1 construct: Immobilised on a CM5 chip; A small amount was amine-coupled and the majority deposited via the reactive thioester by on-chip AP convertase; also called complement fragment C3b; deposited C3b
Description: (§1) C3-fragment binding. Equal amounts of C3b (˜4000 RUs) (from Complement Technology, Tyler, Tex., USA) were immobilized onto 3 flow-cells (fc) of a CM5 chip (Biacore) by initial amine-coupling of a small amount of C3b onto fc 2-4 and further deposition of the vast majority of C3b molecules via its reactive thioester through an on-chip assembly of the AP-convertase (C3bBb) and subsequent exposure to and proteolytic activation of C3 (24). The surface was washed overnight with a buffer flow of 10 ul/min to allow stabilization of the physiologically prepared C3b-surface. […] C3b molecules on fc3 and fc4 were processed with FI in the presence of the cofactors FH or soluble complement receptor 1 (sCR1) to yield iC3b or C3dg (the latter as described in Morgan et al., 2011, supra), respectively. A dummy surface (fc1) was prepared by two consecutive cycles of surface activation with standard amine coupling reagents and quenching by ethanolamine.
(§2) Due to the physiological deposition of C3b and subsequent trimming with FI, both, the iC3b and the C3dg, surfaces likely carry miniscule amounts of residual C3b molecules, which were not readily accessible by FI. […] Deposition, proteolytic processing and all interactions studies were performed in HBS-P+buffer (i.e. 10 mM HEPES-buffered 150 mM saline (pH7.4), 0.005% (v/v) surfactant p20, 1 mM MgCl₂) at 25° C.

iC3b = target: T2, iC3b (UniProt P01024 23-667; P01024 749-1303; P01024 1321-1663); test: SPR (Biacore 2000), analyte over iC3b surface on CM5 chip
T2 construct: Made on the chip from deposited C3b with FI and the cofactor FH
T2 sequence (P01024 23-667, chain 1 of 3): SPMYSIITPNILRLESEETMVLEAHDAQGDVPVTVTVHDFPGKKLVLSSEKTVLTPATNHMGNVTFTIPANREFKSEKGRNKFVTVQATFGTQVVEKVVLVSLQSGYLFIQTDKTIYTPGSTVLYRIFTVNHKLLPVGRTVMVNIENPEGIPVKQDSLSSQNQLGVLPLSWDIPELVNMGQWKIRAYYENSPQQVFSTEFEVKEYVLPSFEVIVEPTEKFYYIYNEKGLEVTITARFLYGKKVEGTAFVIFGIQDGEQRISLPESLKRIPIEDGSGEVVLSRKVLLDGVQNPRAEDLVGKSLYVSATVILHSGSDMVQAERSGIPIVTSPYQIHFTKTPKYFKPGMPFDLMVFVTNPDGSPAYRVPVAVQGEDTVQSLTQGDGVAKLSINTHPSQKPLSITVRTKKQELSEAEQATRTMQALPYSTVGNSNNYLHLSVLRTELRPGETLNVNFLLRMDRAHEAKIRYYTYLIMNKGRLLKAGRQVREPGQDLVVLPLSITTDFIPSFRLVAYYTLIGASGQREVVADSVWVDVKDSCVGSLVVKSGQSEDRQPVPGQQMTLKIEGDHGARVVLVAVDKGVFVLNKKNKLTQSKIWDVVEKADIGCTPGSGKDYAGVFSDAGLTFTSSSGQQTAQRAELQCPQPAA
T2 sequence (P01024 749-1303, chain 2 of 3): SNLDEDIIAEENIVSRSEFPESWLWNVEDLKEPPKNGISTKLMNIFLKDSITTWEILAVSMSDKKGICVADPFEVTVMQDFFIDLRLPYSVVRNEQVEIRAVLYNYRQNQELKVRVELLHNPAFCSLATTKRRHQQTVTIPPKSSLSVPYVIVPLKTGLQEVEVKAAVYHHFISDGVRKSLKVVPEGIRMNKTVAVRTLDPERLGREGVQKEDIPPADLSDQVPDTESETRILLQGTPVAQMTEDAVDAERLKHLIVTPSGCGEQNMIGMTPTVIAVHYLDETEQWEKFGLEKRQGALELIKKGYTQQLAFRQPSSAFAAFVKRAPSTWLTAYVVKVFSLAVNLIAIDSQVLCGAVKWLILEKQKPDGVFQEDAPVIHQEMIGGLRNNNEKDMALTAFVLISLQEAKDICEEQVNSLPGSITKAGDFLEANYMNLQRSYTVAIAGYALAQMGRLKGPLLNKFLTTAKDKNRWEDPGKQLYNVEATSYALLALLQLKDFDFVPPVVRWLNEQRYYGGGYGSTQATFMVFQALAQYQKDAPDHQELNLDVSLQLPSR
T2 sequence (P01024 1321-1663, chain 3 of 3): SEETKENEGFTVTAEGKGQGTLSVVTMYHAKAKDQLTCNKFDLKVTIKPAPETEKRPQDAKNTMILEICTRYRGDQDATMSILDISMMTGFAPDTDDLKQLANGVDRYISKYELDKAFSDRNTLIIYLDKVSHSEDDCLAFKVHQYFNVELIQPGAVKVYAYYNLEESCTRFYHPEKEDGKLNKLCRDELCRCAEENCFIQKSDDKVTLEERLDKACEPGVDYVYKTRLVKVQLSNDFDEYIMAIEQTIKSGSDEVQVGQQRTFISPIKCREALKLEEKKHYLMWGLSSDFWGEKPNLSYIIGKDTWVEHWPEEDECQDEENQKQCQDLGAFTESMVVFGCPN
Description: as §1, §2

C3dg = target: T3, C3dg (UniProt P01024 955-1303); test: SPR (Biacore 2000), analyte over C3dg surface on CM5 chip
T3 construct: Made on the chip from deposited C3b with FI and the cofactor sCR1
T3 sequence (P01024 955-1303 limits assumed): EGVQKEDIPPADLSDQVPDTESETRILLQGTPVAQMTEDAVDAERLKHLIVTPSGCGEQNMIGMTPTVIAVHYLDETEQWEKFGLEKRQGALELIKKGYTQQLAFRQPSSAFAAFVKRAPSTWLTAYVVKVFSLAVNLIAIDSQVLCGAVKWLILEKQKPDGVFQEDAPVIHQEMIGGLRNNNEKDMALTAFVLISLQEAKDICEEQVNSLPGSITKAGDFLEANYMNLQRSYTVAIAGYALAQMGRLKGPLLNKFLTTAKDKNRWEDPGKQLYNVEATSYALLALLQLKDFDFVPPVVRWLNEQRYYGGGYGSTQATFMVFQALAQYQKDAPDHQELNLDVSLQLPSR
Description: as §1, §2

Measured: binding result

T1 sequence (P01024 749-1663 limits assumed, chain 1 of 2): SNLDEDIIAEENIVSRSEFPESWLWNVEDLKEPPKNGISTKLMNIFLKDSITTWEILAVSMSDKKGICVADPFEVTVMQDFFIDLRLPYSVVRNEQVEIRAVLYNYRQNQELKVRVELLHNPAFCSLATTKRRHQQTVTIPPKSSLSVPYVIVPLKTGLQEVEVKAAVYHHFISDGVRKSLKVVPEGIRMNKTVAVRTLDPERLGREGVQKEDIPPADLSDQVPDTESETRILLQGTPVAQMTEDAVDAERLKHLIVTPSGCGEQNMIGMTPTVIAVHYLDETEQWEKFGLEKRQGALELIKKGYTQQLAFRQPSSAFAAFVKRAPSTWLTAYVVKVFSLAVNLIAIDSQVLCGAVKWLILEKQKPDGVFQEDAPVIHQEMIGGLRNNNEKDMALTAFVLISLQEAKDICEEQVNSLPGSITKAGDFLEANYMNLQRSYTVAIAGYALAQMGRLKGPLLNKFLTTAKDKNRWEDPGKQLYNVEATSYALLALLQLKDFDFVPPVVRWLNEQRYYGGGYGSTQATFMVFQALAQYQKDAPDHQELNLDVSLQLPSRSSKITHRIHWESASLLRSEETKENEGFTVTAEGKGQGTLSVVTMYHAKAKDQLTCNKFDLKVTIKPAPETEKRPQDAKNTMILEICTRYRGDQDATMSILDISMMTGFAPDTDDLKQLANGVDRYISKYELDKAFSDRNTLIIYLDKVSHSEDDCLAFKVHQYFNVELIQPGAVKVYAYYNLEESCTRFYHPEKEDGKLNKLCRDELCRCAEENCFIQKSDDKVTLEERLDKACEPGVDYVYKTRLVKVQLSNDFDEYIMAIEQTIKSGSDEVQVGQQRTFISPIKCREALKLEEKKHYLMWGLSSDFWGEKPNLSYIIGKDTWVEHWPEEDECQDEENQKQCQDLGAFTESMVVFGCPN
T1 sequence (P01024 23-667 limits assumed, chain 2 of 2): as the sequence (P01024 23-667, chain 1 of 3) above

B1: FH15-18 (other, UniProt P08603 868-1104, looked up)
chain: IPCSQPPQIEHGTINSSRSSQESYAHGTKLSYTCEGGFRISEENETTCYMGKWSSPPQCEGLPCKSPPEISHGVVAHMSDSYQYGEEVTYKCFEGFGIDGPAIAKCLGEKWSHPPSCIKTDCLSLPSFENAIPMGEKKDVYKAGEQVTYTCATYYKMDGASNVTCINSRWTGRPTCRDTSCVNPPTVQNAYIVSRQMSKYPSGERVRYQCRSPYEMFGDEEVMCLNGNWTEPPQCKD
notes: domain: CCPs 15-18; Negative control analyte in SPR
no binding: all assays above

— patent US20150110766A1 (UNIVERSITY ULM, published 2015)
